Test results taken from US20050233963A1 (priority 2000, published 2005).

Key:
HIV-1 = HIV-1 particle release, p24 antigen capture ELISA in transfected HeLa cells; type: cell-based, human immunodeficiency virus type 1; settings: co-expression in HeLa cells
Procedure: FIG. 20B: Alternatively, HeLa cells were co-transfected with 1 μg of Vpu^+ or Vpu^− proviral genomes and 10 μg pHIV-TARluc (Luc) or pHIV-FTPR. Thirty-six hours after transfection the amount of p24 Gag in the media and cell pellets was quantified using an antigen capture ELISA. The relative particle release is given by the ratio of extracellular to intracellular p24. The data were normalized to the control (Luc). The error bars represent the error of the mean for three independent experiments.
Triplicate plates of 5×10^5 HeLa cells were transfected with 1 μg of Vpu^+ (MSMBA) or Vpu^− (DF101) proviral genomes and 10 μg of pHIV-UBP, pHIV-UBP-N, pHIV-FTPR or pHIV-TARluc. Thirty-six hrs after transfection, media were harvested and centrifuged at low-speed to remove cellular debris. The cells were washed with 1×PBS, resuspended in 1 ml of PBS, then pelleted at 5000×g in microfuge tubes. The cell pellets and media were treated with lysis buffer and applied to an HIV-1 p24 antigen assay kit following the instructions of the manufacturer (Coulter, Westbrook, Maine). Samples were processed along with positive controls to give quantitative levels of p24 Gag. Data were plotted as a function of the relative p24 units.

hsc70 = target: T1, hsc70 (Bos taurus, UniProt P19120); assay: UBP far-western analysis on hsc70; type: binding; settings: GST fusions as probe
T1 construct: purchased Stressgen
Description: FIG. 13A: Thirty μg of HeLa cell lysate was separated by SDS-PAGE in three identical lanes, blotted to nitrocellulose and probed with either, no probe (none), GST alone, or GST-UBP. The far-western blot was then developed with anti-GST antibody to reveal bands which interact with UBP. The arrow to the right indicates a 70 kD band detected by the GST-UBP fusion. The numbers to the left of each blot represent molecular weights in kilodaltons. […] FIG. 13C, Samples from the GST-UBP pull down assay were analyzed by western blot for the presence hsc70. At the bottom of the gel, the contents of each reaction are indicated by the plus symbols. The NaCl concentration of the washing buffer (100, 200, 300, and 500 mM) is indicated at the top of each lane. The arrow to the right of the blot indicates the position of the hsc70 band.
The term “hsc70” is used when referring to both hsp70 and its nearly identical constitutive counterpart, hsc70. […] The numbers to the left of the blots indicate the molecular weights in kilodaltons. The diagram below the blots indicates regions of UBP contained in each fusion construct. The column to the right summarizes the results, where a plus symbol indicates binding and a minus symbol indicates no binding.
Western blots were performed using standard techniques. Briefly, 30 μg HeLa cytoplasmic extract or 20 ng of hsc70, hsp70, or hsp90 were denatured in 1×SDS sample buffer. The samples were loaded on a 10% polyacrylamide gel. Separated protein was transferred to nitrocellulose membranes. The membranes were blocked in 5% dry milk protein in TBS (20 mM Tris [pH 7.4], 100 mM NaCl) for 45 min. The gels with proteins separated on them were transferred to nitrocellulose and blocked against 5% dry milk protein in TBS for 45 min. Primary antibody, either anti-hsp70 or hsp90 monoclonal antibodies, or anti-UBP rabbit polyclonal antibody was incubated with the blots at appropriate concentrations (1:1000 dilutions for each) in 5% milk protein in TBS for 2 hours at 4° C. with gentle rocking. The membranes were washed with TBS for 10 minutes. […]

T1 sequence (P19120 2-650 limits assumed): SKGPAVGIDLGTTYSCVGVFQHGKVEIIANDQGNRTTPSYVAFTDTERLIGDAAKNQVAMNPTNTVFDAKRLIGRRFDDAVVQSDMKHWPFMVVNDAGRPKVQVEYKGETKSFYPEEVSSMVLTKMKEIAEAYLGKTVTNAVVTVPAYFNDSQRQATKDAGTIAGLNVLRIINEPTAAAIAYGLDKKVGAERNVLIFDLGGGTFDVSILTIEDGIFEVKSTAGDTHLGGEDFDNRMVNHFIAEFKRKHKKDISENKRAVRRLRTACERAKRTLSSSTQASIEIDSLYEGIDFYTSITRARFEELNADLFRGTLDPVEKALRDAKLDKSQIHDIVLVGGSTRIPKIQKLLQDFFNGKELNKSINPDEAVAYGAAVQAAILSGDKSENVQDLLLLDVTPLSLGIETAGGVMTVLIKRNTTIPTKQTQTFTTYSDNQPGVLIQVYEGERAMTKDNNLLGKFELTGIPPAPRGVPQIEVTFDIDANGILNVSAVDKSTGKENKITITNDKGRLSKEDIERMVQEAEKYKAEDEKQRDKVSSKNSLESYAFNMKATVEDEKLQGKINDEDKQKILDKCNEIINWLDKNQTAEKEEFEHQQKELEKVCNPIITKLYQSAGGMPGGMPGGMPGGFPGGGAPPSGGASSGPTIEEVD

B1: N 1/2: N-terminal portion of UBP (a.a. 1-145) (protein)
chain: MDNKKRLAYAIIQFLHDQLRHGGLSSDAQESLEVAIQCLETAFGVTVEDSDLALPQTLPEIFEAAATGKEMPQDLRSPARTPPSEEDSAEAERLKTEGNEQMKVENFEAAVHFYGKAIELNPANAVYFCNRAAAYSKLGNYAGAV
modifications: left off: a dimerising Fc or GST
For B1, the “efficiency of virus particle exit (extracellular to intracellular p24 Gag)” value (“efficiency of virus particle exit” for short) (HIV-1; Vpu present) was “slight increase”, the “efficiency of virus particle exit” value (HIV-1; absence of Vpu) was “did not significantly increase” and the “interaction with hsc70” value (hsc70) was “did not detectably interact”.

B2: FTPR: UBP fragment containing TPR 2-4 with flanking charged residues (a.a. 81-209) (protein)
chain: TPPSEEDSAEAERLKTEGNEQMKVENFEAAVHFYGKAIELNPANAVYFCNRAAAYSKLGNYAGAVQDCERAICIDPAYSKAYGRMGLALSSLNKHVEAVAYYKKALELDPDNETYKSNLKIAELKLREA
In the case of B2, the “efficiency of virus particle exit” value (HIV-1; Vpu present) is reported as “slight increase” and the “efficiency of virus particle exit” value (HIV-1; absence of Vpu) is reported as “did not significantly increase”.

B3: TPR 2-4 (protein)
chain: KTEGNEQMKVENFEAAVHFYGKAIELNPANAVYFCNRAAAYSKLGNYAGAVQDCERAICIDPAYSKAYGRMGLALSSLNKHVEAVAYYKKALELDPDNETY
modifications: left off: a dimerising Fc or GST
In the case of B3, the “interaction with hsc70” value (hsc70) is reported as “capable of stable interaction”.

B4: C 1/2: C-terminal half of UBP (a.a. 145-313) (protein)
chain: VQDCERAICIDPAYSKAYGRMGLALSSLNKHVEAVAYYKKALELDPDNETYKSNLKIAELKLREAPSPTGGVGSFDIAGLLNNPGFMSMASNLMNNPQIQQLMSGMISGGNNPLGTPGTSPSQNDLASLIQAGQQFAQQMQQQNPELIEQLRSQIRSRTPSASNDDQQE
modifications: left off: a dimerising Fc or GST
B4 was tested, and the “interaction with hsc70” value (hsc70) was “did not detectably interact”.
